According to publication PMC4598320, “Novel binders derived from an albumin-binding domain scaffold targeting human prostate secretory protein 94 (PSP94)” (Protein & Cell, 2015):
Values joined by “and” are separate entries in the source; they are usually repeats but may differ in a detail not shown here. Equal entries are not always repeated. Ends that are not written are not given here.

B1: PAB050 (HisTag-PAB-TolA-AviTag fusion protein) (designed binder)
chain: LAEAKVLANRELDKYGVSDLYKNHINTAWRVAAVKRAIDLILASLP
modifications: not fully specified (N-terminus, C-terminus)
notes: numbers count on: the 46-residue ABD scaffold; positions 20-46 of the ABD scaffold with the 11 randomized positions as selected in PAB050; 46-residue ABD variant linked to a 305-residue TolA spacer with a C-terminal AviTag; also called PAB50; PAB050 variant; source: E. coli, purified, in vivo biotinylated; not shown: His tag, N-terminal, kept; TolA spacer (helical, 305 amino acids), C-terminal, …
B2: PAB036 (HisTag-PAB-TolA-AviTag fusion protein) (designed binder)
chain: LAEAKVLANRELDKYGVSDWYKNGINPAHRVRWVKGRIDAILARLP
modifications: not fully specified (N-terminus, C-terminus)
notes: numbers count on: the 46-residue ABD scaffold; positions 20-46 of the ABD scaffold with the 11 randomized positions as selected in PAB036; 46-residue ABD variant linked to a 305-residue TolA spacer with a C-terminal AviTag; also called PAB036 variant; source: E. coli, purified, in vivo biotinylated; not shown: His tag, N-terminal, kept; TolA spacer (helical, 305 amino acids), C-terminal, kept; …
B3: PAB046 (HisTag-PAB-TolA-AviTag fusion protein) (designed binder)
chain: LAEAKVLANRELDKYGVSDRYKNAINRAPAVWWVKRLIDAILAALP
modifications: not fully specified (N-terminus, C-terminus)
notes: numbers count on: the 46-residue ABD scaffold; positions 20-46 of the ABD scaffold with the 11 randomized positions as selected in PAB046; 46-residue ABD variant linked to a 305-residue TolA spacer with a C-terminal AviTag; also called PAB046 variant; source: E. coli, purified, in vivo biotinylated; not shown: His tag, N-terminal, kept; TolA spacer (helical, 305 amino acids), C-terminal, kept; …
B4: recombinant HisTag-PSP94 (human prostate secretory protein 94) (natural protein)
chain: SCYFIPNEGVPGDSTRKCMDLKGNKHPINSEWQTDNCETCTCYETEISCCTLVSTPVGYDKDNCQRIFKKEDCKYIVVEKKDPKKTCSVSEWII
modifications: fluorescent label (in the microscale thermophoresis only)

What was measured:
[1] = biological target: T1, recombinant HisTag-PSP94 (human prostate secretory protein 94) (human, UniProt P08118 21-114, fluorescent label (in the microscale thermophoresis only)); assay: MST; fluorescently labelled HisTag-PSP94 in solution, PAB variants titrated; thermophoresis + T-jump data, NanoTemper software; conditions: both partners purified
T1 construct: prostate secretory protein 94 (PSP94, β-microseminoprotein), human, product of the MSMB gene; The letter has no methods section; the construct may be told in the supplementary file; also called His-PSP94; β-microseminoprotein; not shown: His tag, N-terminal, kept
T1 sequence (looked up): B4 chain

[2] = biological target: T2, PSP94 of LNCaP prostate cancer cells (membrane-bound on the cell surface); intracellular in permeabilized … (human (endogenous in LNCaP), UniProt P08118 21-114); assay: flow cytometry on cells; competition: LNCaP cells with (80 µg/mL) or without rabbit polyclonal antibody sc-68920 for 15 min on ice, then PAB binders at 10 µg/mL for 30 min; streptavidin-PE; conditions: one partner purified
T2 construct: the cells were not transfected; source: endogenous, LNCaP cells (on the cell surface; inside permeabilized cells)
T2 sequence (looked up): B4 chain

[3] = biological target: both these PAB proteins; assay: flow cytometry on cells; competition: PAB variants mixed with increasing concentrations of recombinant HisTag-PSP94 and left to bind LNCaP cells for 30 min; streptavidin-PE; binding without PSP94 taken as 100%; pair recombinant PSP94 with PAB

| Binder | Kd [1] | percent inhibition of binding by polyclonal antibody sc-68920 (the pair that is blocked) [2] [%] | percent inhibition of PAB binding to LNCaP cells at 20 µg/mL PSP94 [3] [%] |
| --- | --- | --- | --- |
| B1 | 10 nM and 12 nM and 21 nM | 30 |  |
| B2 | 40 nM and 72 nM | ~15 |  |
| B3 | 49 ± 10 nM | 30 |  |
| B4 |  |  | 5 to 10 |
